According to patent publication US6207419A, “Thrombin inhibitory agents and methods of using same” (The University of North Carolina at Chapel Hill, priority 1999, dated 2001):

What was measured:
thrombin [1] = assay: Plasma-based thrombin inhibition assay; assay type: biochemical, human; details: for Inhibition Rate k2 × 10^8 (M^-1 min^-1), thrombin in plasma: 10 nM serpin
Experimental: The assay to evaluate rHCII (wt and rHCII-CHis6) in plasma was designed based on previously published methods (Tollefsen, D. M., and Pestka, C. A. (1985) Blood 66(4), 769-774; Griffith, M. J., Carraway, T., White, G. C., and Dombrose, F. A. (1983) Blood 61(1), 111-118). All assays were performed at room temperature in 96-well microtiter plates previously coated with 2 mg/mL BSA. This assay was performed using normal hemostasis reference plasma (REF), human antithrombin III-deficient plasma (DEF), or a 50:50 mixture of these plasmas (REF/DEF). Within the assay, 10 nM rHCII or rHCII-CHis6 was incubated for 15 sec with I nM thrombin and 1 μg/mL heparin or 50 μg/mL dermatan sulfate, in the presence of a 1:100 dilution of plasma. Residual thrombin activity was measured with 300 μM GPA and 2 mg/mL pB. Substrate cleavage was measured by color development at […] on a Vmax Kinetic Microplate Reader. Second order rate constants were measured at least in triplicate on two recombinant protein preparations as described in Example 4.

thrombin [2] = assay: pH titration of thrombin inhibition; assay type: biochemical; details: pH 6.2 to pH 8; FIG. 6
Excerpt: Therefore, it is possible that the enhanced thrombin inhibitory activity of rHCII-CHis6 (assayed at pH 7.4) is attributable to a charge on the carboxyl terminal tag. An assay was designed to measure thrombin inhibition by rHCII-CHis6 and wt-rHCII from pH 6.2 to pH 8.

[3] = system: plasma-purified α-thrombin; assay: Thrombin inhibition with heparin before and after carboxypeptidase A digest; assay type: biochemical, human; details: 2 hr, room temperature, FIG. 3
Experimental: Forty ng of CPA was combined with approximately 1 μg of recombinant protein and incubated at room temperature. Following a 2-hr incubation at room temperature, 2 mM EDTA was added to quench CPA activity. Controls were run in which EDTA was added to the reaction prior to the addition of CPA. CPA digested proteins were then assayed according to previously mentioned procedures.

thrombin [4] = assay: Thrombin inhibition in the absence of glycosaminoglycan; assay type: biochemical, human
Experimental: All assays were performed at room temperature in 96-well microtiter plates previously coated with 2 mg/mL BSA.
(§1) Residual thrombin activity was measured with 150 μM GlyProArg-NA and 1 mg/mL pB in the absence of glycosaminoglycan, 2 mg/mL pB in the presence of heparin and 4 mg/mL in the presence of dermatan sulfate. Residual factor Xa activity was measured with 500 μM Spectrozyme FXa and 2mg/mL pB in the presence or absence of glycosaminoglycan. Residual chymotrypsin activity was measured with 150 μM AlaAlaProPhe-NA and residual trypsin activity was measured with 150 μM GlyProArg-NA.
Assays were performed at least in triplicate on two or more recombinant protein preparations.

[5] = Heparin-Sepharose affinity chromatography; assay type: binding; details: NaCl gradient, 20 mM Hepes pH 7.4
Experimental: 100 μL of each fraction was aliquoted onto a 96-well microtiter plate and ELISA was performed. The peak elution ionic strength was determined by plotting 405 nm color development and NaCl concentration against the fraction number. All samples were run at least in triplicate using two or more protein preparations. Recombinant ATIII samples were run similarly to the HCII samples, except the elution gradient was run from 50 mM to 2 M NaCl.

chymotrypsin = assay: Chymotrypsin inhibition in the absence of glycosaminoglycan; assay type: biochemical
Experimental: Protease inhibition rates were determined as described previously (Rogers, S. J., Pratt, C. W., Whinna, H. C., and Church, F. C. (1992) J. Biol. Chem. 267(6), 3613-3617; Whinna, H. C., Choi, H. U., Rosenberg, L. C., and Church, F. C. (1993) J. Biol. Chem. 268, 3920-3924; Ciaccia, A. V., Cunningham, E. L., and Church, F. C. (1995) Protein Express. Purific. 6, 806-812; Ciaccia, A. V., Willemze, A. J., and Church, F. C. (1997) J. Biol. Chem. 272(2), 888-893). All assays were performed at room temperature in 96-well microtiter plates previously coated with 2 mg/mL BSA.
In the absence of glycosaminoglycan, 50-100 nM rHCII (wt, CHis6, CHis5 Pro, L444R, or L444R-CHis6) or rATIII (wt or CHis6) was incubated with 1 nM thrombin, 0.5 nM Factor Xa, 2 nM chymotrypsin, or 5 nM trypsin, in the presence of 1 mg/mL Polybrene (pB) (for thrombin and Factor Xa) and 2 mg/mL BSA in HNPN, pH 7.4.
as §1, with “GlyProArg-NA. Substrate cleavage was measured by color development at […] on a Vmax Kinetic Microplate Reader (Molecular Devices).” for “GlyProArg-NA.”
Assays were performed at least in triplicate on two or more recombinant protein preparations. All inhibition studies were measured under pseudo-first order conditions where inhibitor [I] is at least ten-fold higher than enzyme (protease) [E], and second-order rate constants were calculated as described previously (Ciaccia, A. V., Cunningham, E. L., and Church, F. C. (1995) Protein Express. Purific. 6, 806-812; Ciaccia, A. V., Willemze, A. J., and Church, F. C. (1997) J. Biol. Chem. 272(2), 888-893).

B1: rHCII-CHis6: Recombinant HCII with six histidine residues added at the carboxyl terminus; SEQ ID NO:5 (protein)
chain: MKHSLNALLIFLIITSAWGGSKGPLDQLEKGGETAQSADPQWEQLNNKNLSMPLLPADFHKENTVTNDWIPEGEEDDDYLDLEKIFSEDDDYIDIVDSLSVSPTDSDVSAGNILQLFHGKSRIQRLNILNAKFAFNLYRVLKDQVNTFDNIFIAPVGISTAMGMISLGLKGETHEQVHSILHFKDFVNASSKYEITTIHNLFRKLTHRLFRRNFGYTLRSVNDLYIQKQFPILLDFRTKVREYYFAEAQIADFSDPAFISKTNNHIMKLTKGLIKDALENIDPATQMMILNCIYFKGSWVNKFPVEMTHNHNFRLNEREVVKVSMMQTKGNFLAANDQELDCDILQLEYVGGISMLIVVPHKMSGMKTLEAQLTPRVVERWQKSMTNRTREVLLPKFKLEKNYNLVESLKLMGIRMLFDKNGNMAGISDQRIAIDLFKHQGTITVNEEGTQATTVTTVGFMPLSTQVRFTVDRPFLFLIYEHRTSCLLFMGRVANPSRSHHHHHH
modifications: C-terminal His6 tag
increase of thrombin inhibition rate compared to wt-rHCII (thrombin [1]; 50 μg/mL dermatan sulfate, each of the plasma conditions): 1.2-1.3 fold
increase of thrombin inhibition rate compared to wt-rHCII (thrombin [1]; 50:50 mixture of REF/DEF, 1 μg/mL heparin): 1.5 fold
increase of thrombin inhibition rate compared to wt-rHCII (thrombin [1]; DEF plasma, 1 μg/mL heparin): 4.6 fold
Inhibition Rate k2 × 10^8 (M^-1 min^-1), thrombin in plasma (thrombin [1]; Dermatan Sulfate (50 μg/mL), 50:50 Mixture (REF/DEF) plasma 1:100): 7.0 × 10^8 (M^-1 min^-1)
Inhibition Rate k2 × 10^8 (M^-1 min^-1), thrombin in plasma (thrombin [1]; Dermatan Sulfate (50 μg/mL), ATIII Deficient (DEF) plasma 1:100): 7.5 × 10^8 (M^-1 min^-1)
Inhibition Rate k2 × 10^8 (M^-1 min^-1), thrombin in plasma (thrombin [1]; Dermatan Sulfate (50 μg/mL), Normal Reference (REF) plasma 1:100): 7.2 × 10^8 (M^-1 min^-1)
Inhibition Rate k2 × 10^8 (M^-1 min^-1), thrombin in plasma (thrombin [1]; Heparin (1 μg/mL), 50:50 Mixture (REF/DEF) plasma 1:100): 2.8 ± .18 × 10^8 (M^-1 min^-1)
Inhibition Rate k2 × 10^8 (M^-1 min^-1), thrombin in plasma (thrombin [1]; Heparin (1 μg/mL), ATIII Deficient (DEF) plasma 1:100): 1.2 ± .10 × 10^8 (M^-1 min^-1)
Inhibition Rate k2 × 10^8 (M^-1 min^-1), thrombin in plasma (thrombin [1]; Heparin (1 μg/mL), Normal Reference (REF) plasma 1:100): 3.3 ± .37 × 10^8 (M^-1 min^-1)
increase of thrombin inhibition rate compared to wt-rHCII (thrombin [1]; REF plasma, 1 μg/mL heparin): 1.5 fold
inhibition of thrombin over pH titration, in words (thrombin [2]): greater than that by wt-rHCII
change of heparin-dependent thrombin inhibition after CPA digest, in words [3]: shifts to lower rates of inhibition
Ratio (mutant/wt serpin), thrombin (thrombin [4]): 1.48
rate of thrombin inhibition relative to wt-rHCII (thrombin [4]): 1.5 fold
k2 × 10^4 (M^-1 min^-1), thrombin (thrombin [4]; pH 7.4, mean ± S.D.): 1.92 ± .10 × 10^4 (M^-1 min^-1)
Heparin-Sepharose [NaCl], peak elution concentration [5]: 575 mM
Ratio (mutant/wt serpin), chymotrypsin (chymotrypsin): .860
chymotrypsin inhibition compared with wt-rHCII, in words (chymotrypsin): essentially the same
k2 × 10^4 (M^-1 min^-1), chymotrypsin (chymotrypsin; pH 7.4, mean ± S.D.): 61.0 ± 16 × 10^4 (M^-1 min^-1)
